For this assay, the system named is HCoV-OC43 gRNA and sgRNA. The class given is binding. The following applies: for target (unweighted spectral count, OC43 Probe II): OC43 Probe II capture on infected cells; for background (unweighted spectral count, no-probe control): no-probe control on infected cells; for target (unweighted spectral count, OC43 Probe II capture): FDR<10%.
The mark [1] stands for this setting: 36 hpi, type n_36_v, tested against no-probe control.

Where two headings read alike, the source gives them in different places.

B1: DHX15 (protein, UniProt O43143 1-795, looked up)
ATP-dependent RNA helicase …: MSKRHRLDLGEDYPSGKKRAGTDGKDRDRDRDREDRSKDRDRERDRGDREREREKEKEKELRASTNAMLISAGLPPLKASHSAHSTHSAHSTHSTHSAHSTHAGHAGHTSLPQCINPFTNLPHTPRYYDILKKRLQLPVWEYKDRFTDILVRHQSFVLVGETGSGKTTQIPQWCVEYMRSLPGPKRGVACTQPRRVAAMSVAQRVADEMDVMLGQEVGYSIRFEDCSSAKTILKYMTDGMLLREAMNDPLLERYGVIILDEAHERTLATDILMGVLKEVVRQRSDLKVIVMSATLDAGKFQIYFDNCPLLTIPGRTHPVEIFYTPEPERDYLEAAIRTVIQIHMCEEEEGDLLLFLTGQEEIDEACKRIKREVDDLGPEVGDIKIIPLYSTLPPQQQQRIFEPPPPKKQNGAIGRKVVVSTNIAETSLTIDGVVFVIDPGFAKQKVYNPRIRVESLLVTAISKASAQQRAGRAGRTRPGKCFRLYTEKAYKTEMQDNTYPEILRSNLGSVVLQLKKLGIDDLVHFDFMDPPAPETLMRALELLNYLAALNDDGDLTELGSMMAEFPLDPQLAKMVIASCDYNCSNEVLSITAMLSVPQCFVRPTEAKKAADEAKMRFAHIDGDHLTLLNVYHAFKQNHESVQWCYDNFINYRSLMSADNVRQQLSRIMDRFNLPRRSTDFTSRDYYINIRKALVTGYFMQVAHLERTGHYLTVKDNQVVQLHPSTVLDHKPEWVLYNEFVLTTKNYIRTCTDIKPEWLVKIAPQYYDMSNFPQCEAKRQLDRIIAKLQSKEYSQY
Take B1: under “type n_48_v, 48 hpi”, the “target (unweighted spectral count, OC43 Probe II)” value is recorded as 13 and the “background (unweighted spectral count, no-probe control)” value was 3.

B2: C8orf33 (protein, UniProt Q9H7E9 2-229, looked up)
UPF0488 protein C8orf33: AALGHLAGEAAAAPGPGTPCASRGARLPGPVSSARNPSTVCLCPEQPTCSNADSRAHPLGDEGGTASKKQKNKKKTRNRASVANGGEKASEKLAPEEVPLSAEAQAQQLAQELAWCVEQLELGLKRQKPTPKQKEQAIGAIRTLRSKRTPLPRKRQLMHSLFGDYRAQMEAEWREALRALRAAAYSAQVQPVDGATRKKSQRVCRPRSIWRAKATLDMPDEEFRFNFF
On to B2, for which the “target (unweighted spectral count, OC43 Probe II capture)” value under setting [1] was 4.

B3: TFB1M (protein, UniProt Q8WVM0 28-346, looked up)
Dimethyladenosine transferase …: QAAKQLSQNFLLDLRLTDKIVRKAGNLTNAYVYEVGPGPGGITRSILNADVAELLVVEKDTRFIPGLQMLSDAAPGKLRIVHGDVLTFKVEKAFSESLKRPWEDDPPNVHIIGNLPFSVSTPLIIKWLENISCRDGPFVYGRTQMTLTFQKEVAERLAANTGSKQRSRLSVMAQYLCNVRHIFTIPGQAFVPKPEVDVGVVHFTPLIQPKIEQPFKLVEKVVQNVFQFRRKYCHRGLRMLFPEAQRLESTGRLLELADIDPTLRPRQLSISHFKSLCDVYRKMCDEDPQLFAYNFREELKRRKSKNEEKEEDDAENYRL
Turning to B3, the “target (unweighted spectral count, OC43 Probe II capture)” value under setting [1] is 4.

B4: NOP58 (protein, UniProt Q9Y2X3 1-529, looked up)
Nucleolar protein 58: MLVLFETSVGYAIFKVLNEKKLQEVDSLWKEFETPEKANKIVKLKHFEKFQDTAEALAAFTALMEGKINKQLKKVLKKIVKEAHEPLAVADAKLGGVIKEKLNLSCIHSPVVNELMRGIRSQMDGLIPGVEPREMAAMCLGLAHSLSRYRLKFSADKVDTMIVQAISLLDDLDKELNNYIMRCREWYGWHFPELGKIISDNLTYCKCLQKVGDRKNYASAKLSELLPEEVEAEVKAAAEISMGTEVSEEDICNILHLCTQVIEISEYRTQLYEYLQNRMMAIAPNVTVMVGELVGARLIAHAGSLLNLAKHAASTVQILGAEKALFRALKSRRDTPKYGLIYHASLVGQTSPKHKGKISRMLAAKTVLAIRYDAFGEDSSSAMGVENRAKLEARLRTLEDRGIRKISGTGKALAKTEKYEHKSEVKTYDPSGDSTLPTCSKKRKIEQVDKEDEITEKKAKKAKIKVKVEEEEEEKVAEEEETSVKKKKKRGKKKHIKEEPLSEEEPCTSTAIASPEKKKKKKKKRENED
Regarding B4, the “target (unweighted spectral count, OC43 Probe II capture)” value under setting [1] is on record as 4.

B5: UBAP2 (protein, UniProt Q5T6F2 1-1119, looked up)
Ubiquitin-associated protein 2: MMTSVSSDHCRGAREKPQISAAQSTQPQKQVVQATAEQMRLAQVIFDKNDSDFEAKVKQLMEVTGKNQDECIVALHDCNGDVNKAINILLEGNSDTTSWETVGCKKKNFAKENSENKENREKKSEKESSRGRGNNNRKGRGGNRGREFRGEENGIDCNQVDKPSDRGKRARGRGFGRGRGRGAGRFSTQGMGTFNPADYSDSTSTDVCGTKLVVWEAAQNGADEGTELASNTHNIAQDLSNKSSYGLKGAWKNSVEEWTTEDWTEDLSETKVFTASSAPAENHILPGQSIDLVALLQKPVPHSQASEANSFETSQQQGFGQALVFTNSQHNNQMAPGTGSSTAVNSCSPQSLSSVLGSGFGELAPPKMANITSSQILDQLKAPSLGQFTTTPSTQQNSTSHPTTTTSWDLKPPTSQSSVLSHLDFKSQPEPSPVLSQLSQRQQHQSQAVTVPPPGLESFPSQAKLRESTPGDSPSTVNKLLQLPSTTIENISVSVHQPQPKHIKLAKRRIPPASKIPASAVEMPGSADVTGLNVQFGALEFGSEPSLSEFGSAPSSENSNQIPISLYSKSLSEPLNTSLSMTSAVQNSTYTTSVITSCSLTSSSLNSASPVAMSSSYDQSSVHNRIPYQSPVSSSESAPGTIMNGHGGGRSQQTLDTPKTTGPPSALPSVSSLPSTTSCTALLPSTSQHTGDLTSSPLSQLSSSLSSHQSSLSAHAALSSSTSHTHASVESASSHQSSATFSTAATSVSSSASSGASLSSSMNTANSLCLGGTPASASSSSSRAAPLVTSGKAPPNLPQGVPPLLHNQYLVGPGGLLPAYPIYGYDELQMLQSRLPVDYYGIPFAAPTALASRDGSLANNPYPGDVTKFGRGDSASPAPATTPAQPQQSQSQTHHTAQQPFVNPALPPGYSYTGLPYYTGMPSAFQYGPTMFVPPASAKQHGVNLSTPTPPFQQASGYGQHGYSTGYDDLTQGTAAGDYSKGGYAGSSQAPNKSAGSGPGKGVSVSSSTTGLPDMTGSVYNKTQTFDKQGFHAGTPPPFSLPSVLGSTGPLASGAAPGYAPPPFLHILPAHQQPHSQLLHHHLPQDAQSGSGQRSQPSSLQPKSQASKPAYGNSPYWTN
In the case of B5, under setting [1], the “target (unweighted spectral count, OC43 Probe II capture)” value was determined as 4.

B6: GNL3 (protein, UniProt Q9BVP2 1-549, looked up)
Guanine nucleotide-binding …: MKRPKLKKASKRMTCHKRYKIQKKVREHHRKLRKEAKKRGHKKPRKDPGVPNSAPFKEALLREAELRKQRLEELKQQQKLDRQKELEKKRKLETNPDIKPSNVEPMEKEFGLCKTENKAKSGKQNSKKLYCQELKKVIEASDVVLEVLDARDPLGCRCPQVEEAIVQSGQKKLVLILNKSDLVPKENLESWLNYLKKELPTVVFRASTKPKDKGKITKRVKAKKNAAPFRSEVCFGKEGLWKLLGGFQETCSKAIRVGVIGFPNVGKSSIINSLKQEQMCNVGVSMGLTRSMQVVPLDKQITIIDSPSFIVSPLNSSSALALRSPASIEVVKPMEAASAILSQADARQVVLKYTVPGYRNSLEFFTVLAQRRGMHQKGGIPNVEGAAKLLWSEWTGASLAYYCHPPTSWTPPPYFNESIVVDMKSGFNLEELEKNNAQSIRAIKGPHLANSILFQSSGLTNGIIEEKDIHEELPKRKERKQEEREDDKDSDQETVDEEVDENSSGMFAAEETGEALSEETTAGEQSTRSFILDKIIEEDDAYDFSTDYV
With B6, the “target (unweighted spectral count, OC43 Probe II capture)” value under setting [1] worked out at 4.

B7: TUBB (protein, UniProt P07437 1-444, looked up)
Tubulin beta chain: MREIVHIQAGQCGNQIGAKFWEVISDEHGIDPTGTYHGDSDLQLDRISVYYNEATGGKYVPRAILVDLEPGTMDSVRSGPFGQIFRPDNFVFGQSGAGNNWAKGHYTEGAELVDSVLDVVRKEAESCDCLQGFQLTHSLGGGTGSGMGTLLISKIREEYPDRIMNTFSVVPSPKVSDTVVEPYNATLSVHQLVENTDETYCIDNEALYDICFRTLKLTTPTYGDLNHLVSATMSGVTTCLRFPGQLNADLRKLAVNMVPFPRLHFFMPGFAPLTSRGSQQYRALTVPELTQQVFDAKNMMAACDPRHGRYLTVAAVFRGRMSMKEVDEQMLNVQNKNSSYFVEWIPNNVKTAVCDIPPRGLKMAVTFIGNSTAIQELFKRISEQFTAMFRRKAFLHWYTGEGMDEMEFTEAESNMNDLVSEYQQYQDATAEEEEDFGEEAEEEA
For the molecule B7, the “target (unweighted spectral count)” value (OC43 Probe II, 12 hpi (type n_12_v), infected cells, tested against no-probe control) was 11. Under “type n_36_v, 36 hpi”, the “target (unweighted spectral count, OC43 Probe II)” value is recorded as 11 and the “background (unweighted spectral count, no-probe control)” value is 4.

B8: SRP72 (protein, UniProt O76094 2-671, looked up)
Signal recognition particle …: ASGGSGGVSVPALWSEVNRYGQNGDFTRALKTVNKILQINKDDVTALHCKVVCLIQNGSFKEALNVINTHTKVLANNSLSFEKAYCEYRLNRIENALKTIESANQQTDKLKELYGQVLYRLERYDECLAVYRDLVRNSQDDYDEERKTNLSAVVAAQSNWEKVVPENLGLQEGTHELCYNTACALIGQGQLNQAMKILQKAEDLCRRSLSEDTDGTEEDPQAELAIIHGQMAYILQLQGRTEEALQLYNQIIKLKPTDVGLLAVIANNIITINKDQNVFDSKKKVKLTNAEGVEFKLSKKQLQAIEFNKALLAMYTNQAEQCRKISASLQSQSPEHLLPVLIQAAQLCREKQHTKAIELLQEFSDQHPENAAEIKLTMAQLKISQGNISKACLILRSIEELKHKPGMVSALVTMYSHEEDIDSAIEVFTQAIQWYQNHQPKSPAHLSLIREAANFKLKYGRKKEAISDLQQLWKQNPKDIHTLAQLISAYSLVDPEKAKALSKHLPSSDSMSLKVDVEALENSAGATYIRKKGGKVTGDSQPKEQGQGDLKKKKKKKKGKLPKNYDPKVTPDPERWLPMRERSYYRGRKKGKKKDQIGKGTQGATAGASSELDASKTVSSPPTSPRPGSAATVSASTSNIIPPRHQKPAGAPATKKKQQQKKKKGGKGGW
As to B8, the “target (unweighted spectral count, OC43 Probe II capture)” value under setting [1] is recorded as 4.

B9: EIF2A (protein, UniProt Q9BY44 1-585, looked up)
Eukaryotic translation …: MAPSTPLLTVRGSEGLYMVNGPPHFTESTVFPRESGKNCKVCIFSKDGTLFAWGNGEKVNIISVTNKGLLHSFDLLKAVCLEFSPKNTVLATWQPYTTSKDGTAGIPNLQLYDVKTGTCLKSFIQKKMQNWCPSWSEDETLCARNVNNEVHFFENNNFNTIANKLHLQKINDFVLSPGPQPYKVAVYVPGSKGAPSFVRLYQYPNFAGPHAALANKSFFKADKVTMLWNKKATAVLVIASTDVDKTGASYYGEQTLHYIATNGESAVVQLPKNGPIYDVVWNSSSTEFCAVYGFMPAKATIFNLKCDPVFDFGTGPRNAAYYSPHGHILVLAGFGNLRGQMEVWDVKNYKLISKPVASDSTYFAWCPDGEHILTATCAPRLRVNNGYKIWHYTGSILHKYDVPSNAELWQVSWQPFLDGIFPAKTITYQAVPSEVPNEEPKVATAYRPPALRNKPITNSKLHEEEPPQNMKPQSGNDKPLSKTALKNQRKHEAKKAAKQEARSDKSPDLAPTPAPQSTPRNTVSQSISGDPEIDKKIKNLKKKLKAIEQLKEQAATGKQLEKNQLEKIQKETALLQELEDLELGI
Take B9: the “target (unweighted spectral count, OC43 Probe II capture)” value under setting [1] stood at 4. Further, for the setting “type n_48_v, 48 hpi”, the “target (unweighted spectral count, OC43 Probe II)” value was 5 and the “background (unweighted spectral count, no-probe control)” value turned out to be 1.

Values taken from patent US20230407373A1 (priority 2020, published 2023).
